Experimental data taken from paper PMC4338028, “Studies of a Murine Monoclonal Antibody Directed against DARC: Reappraisal of Its Specificity” (PLoS ONE, 2015).
Square brackets hold non-standard residues; d marks the D form. Ends that are not written are not given here. sY = N[C@@H](Cc1ccc(OS(=O)(=O)O)cc1)C(=O)O

Columns and labels:
[1] = target: T1, first extracellular domain of DARC followed by nuclease from Staphylococcus aureus (ECD1-nuc), wild type (Homo sapiens, UniProt Q16570); assay: SPR; 2C3 MAb or 2C3 Fab immobilised by amine coupling (about 400 RU), anti-Kx2 antibody in the reference cell; ECD1-nuc as analyte at 5 concentrations; association 100 sec, dissociation 600 sec; Biacore X100, CM5, HBS-EP; 1:1 Langmuir model; details: both partners purified
T1 construct: Duffy Antigen Receptor for Chemokines (DARC, ACKR1), first extracellular domain (ECD1); also called WT ECD1-nuc; consensus ECD1; source: E. coli BL21, purified (Capto-S ion exchange, reversed-phase chromatography); not shown: nuclease from Staphylococcus aureus, C-terminal, kept

[2] = target: T1, first extracellular domain of DARC …; assay: ELISA; direct: plate coated with wild-type ECD1-nuc (0.1 μg per well), 2C3 Fab diluted in TBS, 1 h at room temperature; detected with anti-Fab antiserum conjugated with alkaline phosphatase; triplicates; details: both partners purified
[3] = target: T2, DARC from K562 cells after deglycosylation (Homo sapiens, UniProt Q16570, oligosaccharides removed by PNG-ase F on the chip); assay: SPR; DARC purified from K562 cells immobilised at ca. 400 RU, reference cell only activated and deactivated; 2C3 Fab as analyte; measured before and after deglycosylation on the chip with N-glycosidase; Biacore X100; details: both partners purified
T2 construct: Duffy Antigen Receptor for Chemokines (DARC, Atypical Chemokine Receptor 1), full length; m15 after treatment on the chip; also called deglycosylated DARC; source: K562 cells expressing DARC, purified on an immobilised anti-DARC nanobody; deglycosylated with N-glycosidase (PNG-ase F) on the sensor chip

[4] = target: T3, Duffy Antigen Receptor for Chemokines (DARC), full-length consensus, expressed in K562 cells (human) (UniProt Q16570); assay: as above
T3 sequence (chain, N-linked oligosaccharide chains (as made in K562 cells)): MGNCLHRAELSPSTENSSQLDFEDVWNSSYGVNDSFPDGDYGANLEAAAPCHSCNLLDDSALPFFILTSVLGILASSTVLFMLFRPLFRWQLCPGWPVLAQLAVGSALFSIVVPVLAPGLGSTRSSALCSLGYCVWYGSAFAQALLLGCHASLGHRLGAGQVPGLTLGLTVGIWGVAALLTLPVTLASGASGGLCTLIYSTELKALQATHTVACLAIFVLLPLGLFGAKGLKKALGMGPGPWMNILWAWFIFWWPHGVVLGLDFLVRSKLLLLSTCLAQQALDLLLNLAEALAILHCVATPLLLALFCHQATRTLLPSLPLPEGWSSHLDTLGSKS

[5] = target: ECD1-nuc with the phosphorylation site on Tyr-54 of nuclease removed, not phosphorylated (human); assay: SPR; ECD1-nuc (Tyr-54 of nuclease removed) immobilised as ligand, nuclease in the reference cell; 2C3 Fab as analyte; measured before and after phosphorylation on the chip by Src kinase; Biacore X100
[6] = target: ECD1-nuc after phosphorylation by Src kinase (phosphate on Tyr-30) (human); assay: as above
[7] = target: T4, Duffy Antigen Receptor for Chemokines (DARC), full-length consensus, expressed in K562 cells (Homo sapiens, UniProt Q16570, N-linked oligosaccharide chains (as made in K562 cells)); assay: flow cytometry on cells; about 10^6 transfected K562 cells incubated 1 hour with 2C3 MAb culture supernatant in PBS-0.2% BSA, PE-conjugated secondary antibody; read-out is the ratio of % cells positive with 2C3 MAb to % positive with the anti-Fy^a antibody; cells with mean fluorescence above 10^2 counted as positive; details: partners not purified
T4 construct: also called ACKR1; DARC from K562 cells; source: K562 cells, transfected, selected with geneticin: on cells (flow cytometry); purified from the lysate on an immobilised anti-DARC nanobody, eluted with peptide DFEDVW (SPR)

[8] = target: T5, full-length DARC with Tyr-30 replaced by Ala, on K562 cells (Homo sapiens, UniProt Q16570, Y30A (printed as the sequence FEDVWNSSA)); assay: as above; details: partners not purified
T5 construct: DARC (ACKR1), full length, mutant; source: K562 cells, transfected, on cells

[9] = target: T6, full-length DARC with Tyr-30 replaced by Glu, on K562 cells (Homo sapiens, UniProt Q16570, Y30E (printed as the sequence FEDVWNSSE)); assay: as above; details: partners not purified
T6 construct: DARC (ACKR1), full length, mutant; source: K562 cells, transfected, on cells

[10] = target: T7, full-length DARC with Ser-29 and Tyr-30 replaced by Ala, on K562 cells (Homo sapiens (Human)., UniProt Q16570, S29A (printed as the sequence FEDVWNSAA) | Y30A (printed as the sequence …, site N27 is not glycosylated)); assay: as above; details: partners not purified
T7 construct: DARC (ACKR1), full length, mutant; source: K562 cells, transfected, on cells

[11] = target: T8, full-length DARC without the glycosylation site at Asn-27 (Ser-29 replaced by Ala), on K562 cells (Homo sapiens, UniProt Q16570, S29A (printed as the sequence FEDVWNSAY), site N27 is not glycosylated); assay: as above; details: partners not purified
T8 construct: DARC (ACKR1), full length, mutant; source: K562 cells, transfected, on cells

[12] = target: T9, full-length DARC with Trp-26 replaced by Phe, on K562 cells (Homo sapiens (Human)., UniProt Q16570, W26F (printed as the sequence FEDVFNSSY)); assay: as above; details: partners not purified
T9 construct: DARC (ACKR1), full length, mutant; source: K562 cells, transfected, on cells

[13] = target: T10, synthetic peptide DFEDVWNSSYG (residues 21-31 of ECD1 of DARC) (Homo sapiens); assay: SPR; competition: 2C3 MAb (culture supernatant diluted 40 times) incubated 1 h at room temperature with the synthetic peptides, then injected over 2000 RU of immobilised WT ECD1-nuc (nuclease in the reference cell); RU read at 90 sec; Biacore X100, CM5, HBS-EP; the pair peptide and MAb; details: one partner purified
T10 construct: DARC (ACKR1), residues 21-31 of ECD1; also called non-sulfated peptide; source: synthetic peptide; bought: Cambridge Research Biochemicals
T10 chain: DFEDVWNSSYG

[14] = target: murine anti-Fy6 monoclonal antibody 2C3 (clone name NaM185-2C3) (mouse); assay: as above

B1: 2C3 Fab fragment (Fab, V domains shown)
VH: EVKLVESGGDLVQPGGSLKLSCAASGMTFSSYGMSWVRQTPDKRLELVASINRNGGSTYYPDSVKGRFTISRDNAKNTLYLQMSSLKSEDTAMYFCVRAGDYLSMDYWGQGTSVTVSS
VL: ELVMTQTPLSLPVSLGDQASISCRTSQSLLHSNGNTYLHWYLQKPGQSPKLLIYKVPNRFSGVPDRFSGSGSGTDFTLRITRVEAEDLGVYFCSQSTHVYTFGGGTKLEIK
notes: variable region of the heavy chain, as the VH of m1; CH1 part of the Fab; variable region of the light chain, as the VL of m1; light chain constant domain of the Fab; Cloned by PCR from total RNA of the hybridoma into pComb3H; also called 2C3-derived Fab; source: E. coli (pComb3H vector), purified
- Kd [1]: 93 nM
- fold lower affinity than 2C3 MAb (ELISA) [2]: ~2 fold
- Kd [3]: 0.0283 nM
- koff [3]: 0.000276 s⁻¹
- kon [3]: 9.75e+06 M⁻¹ s⁻¹
- Kd [4]: 0.263 nM
- koff [4]: 0.000547 s⁻¹
- kon [4]: 2.08e+06 M⁻¹ s⁻¹
- Kd [5]: 14.2 nM
- koff [5]: 0.000766 s⁻¹
- kon [5]: 53900 M⁻¹ s⁻¹
- Kd [6]: 0.459 nM
- koff [6]: 0.000777 s⁻¹
- kon [6]: 1.69e+06 M⁻¹ s⁻¹

B2: murine anti-Fy6 monoclonal antibody 2C3 (clone name NaM185-2C3) (antibody, V domains shown)
VH: B1 VH
VL: B1 VL
notes: variable region of the heavy chain; murine heavy chain constant region; variable region of the light chain; murine light chain constant region; Whole murine antibody; The variable regions were cloned from the hybridoma for the Fab; also called 2C3 MAb; MAb 2C3; source: 2C3-producing hybridoma
- Kd [1]: 1.1 nM
- ratio of % cells positive with 2C3 MAb to % cells positive with anti-Fy^a MAb [7]: 0.97 ± 0.07
- ratio of % cells positive with 2C3 MAb to % cells positive with anti-Fy^a MAb [8]: 0.75 ± 0.03
- ratio of % cells positive with 2C3 MAb to % cells positive with anti-Fy^a MAb [9]: 1.16 ± 0.09
- ratio of % cells positive with 2C3 MAb to % cells positive with anti-Fy^a MAb [10]: 0.95 ± 0.03
- ratio of % cells positive with 2C3 MAb to % cells positive with anti-Fy^a MAb [11]: 0.97 ± 0.04
- ratio of % cells positive with 2C3 MAb to % cells positive with anti-Fy^a MAb [12]: 0.19 ± 0.02
- IC50 [13]: 410 ± 40 nM

Binder: DFEDVWNSS[sY]G [synthetic sulfated peptide …(SO3H)G (residues 21-31 of ECD1 of DARC)]
- IC50 [14]: 252 nM
